Measured values from patent publication US20240317834A1, “COMPOSITIONS AND METHODS FOR NEUROLOGICAL DISEASES” (CODA BIOTHERAPEUTICS, INC., priority 2020, published 2024).
“Also recorded” adds a separate entry of the source.

Assays:
Format in all cases: cell-based
rat DRG neurons = experiment: Whole cell manual patch clamp electrophysiology, ligand-induced currents and EC50 in rat DRG neurons
Protocol: (§1) Using whole cell manual patch clamp electrophysiology in HEK293 cells, rat DRG neurons and rat hippocampal neurons, the EC50 of the various engineered receptors disclosed herein to Ach and non-native ligands was measured using the Hill equation with peak current measurements from escalating doses of ligand. The rheobase shift was also measured in rat DRG neurons, which reflects the efficacy of the receptors. To calculate the rheobase, first, the amount of current that can produce an action potential was determined. Then the ligand was added, followed by a step wise increase in the current injected up to 700 pA.
(§2) For manual patch clamp experiments, Cells plated on coverslips were visualized at 10× and 40× on an inverted fluorescence microscope (Olympus). Recordings were made with an Axopatch 200B amplifier and Digidata 1550B (Molecular Devices) at RT using 3-6 MOhm glass patch electrodes (Sutter, BF150-86-10). Unless otherwise stated, recordings were made in extracellular solution (ECS) containing: 140 mM sodium chloride, 4 mM potassium chloride, 1 mM magnesium chloride, 2 mM calcium chloride, 10 mM HEPES, and 10 mM D-(+)-glucose (pH=7.3 with sodium hydroxide, osmolarity=305−315 mOsm). An 8-line reservoir (AutoMate Scientific) in combination with an 8-channel zero-dead-volume perfusion pencil (AutoMate Scientific) was used for perfusion. Data was acquired using pClamp software (Molecular Devices). Traces were either analyzed in Clampfit (Molecular Devices) or using custom Python code. Plotting and statistics were performed in GraphPad Prism.
For dose-response, ligand-induced currents were recorded in voltage clamp mode. For HEK cell experiments, recordings took place in the normal ECS with a cesium-based internal solution containing: 140 mM cesium chloride, 5 mM potassium fluoride, 2 mM Calcium chloride, 2 mM magnesium chloride, 10 mM HEPES, and 10 mM EGTA (pH=7.2 with cesium hydroxide, osmolarity=290-295 mOsm). […]

Lenti-X 293T cells = experiment: YFP fluorescence quenching anion reporter plate reader assay of engineered receptors stimulated with acetylcholine or a non-native ligand
Outline: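 Lenti-X 293T cells carrying a YFP anion reporter were transiently transfected with channel DNA and assayed the next day in HEPES-buffered ECS at pH 7.2. Ligand (acetylcholine or non-native ligand) was added in NaI-substituted ECS. Percent quench was the mean of the last 10 s relative to the 15 s pre-addition baseline.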

HEK293 cells = experiment: Whole cell manual patch clamp electrophysiology, ligand-induced currents and EC50 in HEK293 cells
Protocol: as §1
as §2, with “An 8-line reservoir (AutoMate Scientific) in combination with an 8-channel zero-dead-volume perfusion pencil (AutoMate Scientific) was used for perfusion. Data was acquired using pClamp software (Molecular Devices).” left out, “Plotting and statistics were performed in GraphPad Prism.” left out
For dose-response, ligand-induced currents were recorded in voltage clamp mode. […]

B1: CODA806: engineered chimeric LGIC receptor, Y115D, L131Q in SEQ ID NO: 33 (protein)
chain: MRCSPGGVWLALAASLLHVSLQGEFQRKLYKELVKNYNPLERPVANDSQPLTVYFSLSLLQIMDVDEKNQVLTTNIWLQMSWTDHYLQWNVSEYPGVKTVRFPDGQIWKPDILLDNSADERFDATFHTNVQVNSSGHCQYLPPGIFKSSCPMDLKNFPMDVQTCKLKFGSWSYGGWSLDLQMQEADISGYIPNGEWDLVGIPGKRSERFYECCKEPYPDVTFTVTMRRRMGYYLIQMYIPSLLIVILSWISFWINMDAAPARVGLGITTVLTMTTQSSGSRASLPKVSYVKAIDIWMAVCLLFVFSALLEYAAVNFVSRQHKELLRFRRKRRHHKSPMLNLFQEDEAGEGRFNFSAYGMGPACLQAKDGISVKGANNSNTTNPPPAPSKSPEEMRKLFIQRAKKIDKISRIGFPMAFLIFNMFYWIIYKIVRREDVHNQ
modifications: synthetic sequence of chimeric LGIC
- chloride current on application of RG-3487 (SA-2) (rat DRG neurons; cultured adult rat DRG neurons expressing the receptor, not observed in non-transduced cells): generated chloride current in a dose dependent manner
- sensitivity to RG-3487 compared with wildtype nAchRa7 receptor (rat DRG neurons; cultured rat DRG sensory neurons): way more sensitive
- sensitivity to acetylcholine (rat DRG neurons; cultured rat DRG sensory neurons, compared with wildtype nAchRa7 receptor): essentially insensitive
- YFP fluorescence quenching using CNL001 (Lenti-X 293T cells; 1 nM CNL001, first column): 6.587%
- YFP fluorescence quenching using CNL001 (Lenti-X 293T cells; 1 nM CNL001, second column): −5.179%
- YFP fluorescence quenching using TC-5619/Bradanicline (Lenti-X 293T cells; 1 nM brd): 0.92%
- YFP fluorescence quenching using TC-5619/Bradanicline (Lenti-X 293T cells; 3 nM brd): −4.65%
- YFP fluorescence quenching using CNL001 (Lenti-X 293T cells; 10 nM CNL001, first column): −2.366%
- YFP fluorescence quenching using CNL001 (Lenti-X 293T cells; 10 nM CNL001, second column): −1.272%
- YFP fluorescence quenching using TC-5619/Bradanicline (Lenti-X 293T cells; 10 nM brd): 0.38%
- YFP fluorescence quenching using TC-5619/Bradanicline (Lenti-X 293T cells; 30 nM brd): −8.96%
- YFP fluorescence quenching using Facinicline (Lenti-X 293T cells; 30 nM fac): 41.32
- YFP fluorescence quenching using CNL001 (Lenti-X 293T cells; 50 nM CNL001, first column): 2.763%
- YFP fluorescence quenching using CNL001 (Lenti-X 293T cells; 50 nM CNL001, second column): 1.995%
- YFP fluorescence quenching using ABT-126 (Lenti-X 293T cells; 50 nM abt): −1.81%
- YFP fluorescence quenching using CNL001 (Lenti-X 293T cells; 100 nM CNL001, first column): 3.091%
- YFP fluorescence quenching using CNL001 (Lenti-X 293T cells; 100 nM CNL001, second column): 1.45%
- YFP fluorescence quenching using CNL002 (Lenti-X 293T cells; 100 nM CNL002): −10.03%
- YFP fluorescence quenching using ABT-126 (Lenti-X 293T cells; 100 nM abt): −2.61%
- YFP fluorescence quenching using AZD-0328 (Lenti-X 293T cells; 100 nM azd0328): 12.15%
- YFP fluorescence quenching using TC-5619/Bradanicline (Lenti-X 293T cells; 100 nM brd): 12.18%
- YFP fluorescence quenching using Facinicline (Lenti-X 293T cells; 100 nM fac): 59.51
- YFP fluorescence quenching using ABT-126 (Lenti-X 293T cells; 300 nM abt): −3.78%
- YFP fluorescence quenching using AZD-0328 (Lenti-X 293T cells; 300 nM azd0328): 30.92%
- YFP fluorescence quenching using TC-5619/Bradanicline (Lenti-X 293T cells; 300 nM brd): −0.3%
- YFP fluorescence quenching using Facinicline (Lenti-X 293T cells; 300 nM fac): 74.86
- YFP fluorescence quenching using CNL001 (Lenti-X 293T cells; 1 uM CNL001, first column): 7.331%
- YFP fluorescence quenching using CNL001 (Lenti-X 293T cells; 1 uM CNL001, second column): 9.103%
- YFP fluorescence quenching using CNL002 (Lenti-X 293T cells; 1 uM CNL002): −3.33%
- YFP fluorescence quenching using ABT-126 (Lenti-X 293T cells; 1 uM abt): −2.6%
- YFP fluorescence quenching using TC-5619/Bradanicline (Lenti-X 293T cells; 1 uM brd): 45.47%
- YFP fluorescence quenching using TC-6987 (Lenti-X 293T cells; 1 uM tc6987): 38.83
- YFP fluorescence quenching using Facinicline (Lenti-X 293T cells; 10 uM fac): 78.53
- YFP fluorescence quenching using TC-6987 (Lenti-X 293T cells; 10 uM tc6987): 31.59
- YFP fluorescence quenching using CNL002 (Lenti-X 293T cells; 30 uM CNL002): 6.96%
- YFP fluorescence quenching using AZD-0328 (Lenti-X 293T cells; 30 uM azd0328): 68.65%
- YFP fluorescence quenching using Facinicline (Lenti-X 293T cells; 30 uM fac): 84.45
- YFP fluorescence quenching using TC-6987 (Lenti-X 293T cells; 500 uM tc6987): 29.83
- percent quench of YFP fluorescence, 10 uM ach (Lenti-X 293T cells; acetylcholine 10 uM): 9.47%
- percent quench of YFP fluorescence, 100 uM ach (Lenti-X 293T cells; acetylcholine 100 uM): 6.12%
- percent quench of YFP fluorescence, 1 mM ach (Lenti-X 293T cells; acetylcholine 1 mM): −1.56%
- percent quench of YFP fluorescence, 3 mM ach (Lenti-X 293T cells; acetylcholine 3 mM): 17.57%
- sensitivity to RG-3487 compared with wildtype nAchRa7 receptor (HEK293 cells): way more sensitive
- sensitivity to acetylcholine, current generated (HEK293 cells; Ach up to 100 mM, compared with wildtype nAchRa7 receptor, listed as Y115D and L131Q in SEQ ID NO: 33): essentially insensitive; also recorded: almost no current could be generated
